Where no end group is shown, it is not given here. [ ]: non-standard residue; d: D form.
T1: C5a receptor (C5aR) expressed on the surface of human PMNs (human, UniProt P21730 1-350)
T1 construct: whole, on cells; Endogenous receptor on intact human polymorphonuclear cells; also called C5aRs
T1 sequence (looked up): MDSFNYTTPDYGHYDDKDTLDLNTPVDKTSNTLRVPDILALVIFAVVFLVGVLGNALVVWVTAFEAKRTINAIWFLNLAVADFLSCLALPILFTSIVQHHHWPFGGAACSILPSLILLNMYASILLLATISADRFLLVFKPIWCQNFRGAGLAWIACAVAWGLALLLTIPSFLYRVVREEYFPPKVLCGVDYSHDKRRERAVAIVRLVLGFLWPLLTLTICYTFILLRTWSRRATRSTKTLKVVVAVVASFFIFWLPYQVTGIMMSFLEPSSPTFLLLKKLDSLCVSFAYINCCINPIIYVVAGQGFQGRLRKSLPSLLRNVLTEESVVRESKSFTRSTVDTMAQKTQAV

B1: IPQSLDSWWTSLYSFKPMPLaR (HBsAg CTL epitope attached directly to N-terminus of the C5a agonist) (peptide)
peptide: IPQSLDSWWTSLYSFKPMPL[dA]R
notes: Synthetic peptide; also called C5a-active construct without linker
B2: natural C5a (ligand, UniProt P01031 678-751, looked up)
chain: TLQKKIEEIAAKYKHSVVKKCCYDGACVNNDETCEQRAARISLGPRCIKAFTECCVVASQLRANISHKDMQLGR
modifications: 125I label on the tracer form used in the competition assay
notes: C5a is only a fragment of it
B3: C5a C-terminal decapeptide agonist analog YSFKPMPLaR (peptide)
peptide: YSFKPMPL[dA]R
notes: Synthetic peptide; also called C5a agonist; peptide (2)
B4: IPQSLDSWWTSLRVRRYSFKPMPLaR (RVRR furin-sensitive-linked C5a-active construct) (peptide)
peptide: IPQSLDSWWTSLRVRRYSFKPMPL[dA]R
notes: Synthetic peptide; also called RVRR-containing construct
B5: IPQSLDSWWTSLRRYSFKPMPLaR (double-Arg-linked C5a-active construct) (peptide)
peptide: IPQSLDSWWTSLRRYSFKPMPL[dA]R
notes: Synthetic peptide; also called RR-containing construct

Target: T1, C5a receptor (C5aR) expressed on the …
Assay: competition with 125I-C5a on intact human PMNs
Method: Statistical analysis of the values obtained from pharmacologic assays was performed using one-way analysis of variance (ANOVA).

Binder | pD2 (-log IC50 (M))
B1 | 5.43 -log IC50 (M)
YSFKPMPL[dA]RRRIPQSLDSWWTSL (Synthetic peptide) [YSFKPMPLa[…] (C5a-inactive construct, C-terminus of agonist blocked by the HBsAg CTL epitope)] | 3.33 -log IC50 (M)
B2 | 9.43 -log IC50 (M)
B3 | 5.63 -log IC50 (M)
B4 | 6.28 -log IC50 (M)
B5 | 6.38 -log IC50 (M)
IPQSLDSWWTSLRRYSFKPMPL[dA]RG (Synthetic peptide) | 4.77 -log IC50 (M)

Target: T1, C5a receptor (C5aR) expressed on the …
Assay: cell-based or functional assay

Binder | EC50, MPO release from human PMNs | pD2, MPO release from human PMNs
B1 | 1.58 µM | 5.8 -log EC50 (M)
YSFKPMPL[dA]RRRIPQSLDSWWTSL (Synthetic peptide) [YSFKPMPLa[…] (C5a-inactive construct, C-terminus of agonist blocked by the HBsAg CTL epitope)] | > 1000 µM | –
B2 | 0.003 µM | –
B4 | 2.15 µM | 5.61 -log EC50 (M)
B5 | 0.54 µM | 6.27 -log EC50 (M)
IPQSLDSWWTSLRRYSFKPMPL[dA]RG (Synthetic peptide) | 2.56 µM | 5.59 -log EC50 (M)

Target: T1, C5a receptor (C5aR) expressed on the …
Assay: competition with 125I-C5a on intact human PMNs (column headed EC50; 50% inhibition of 125I-C5a binding)

Binder | IC50
B1 | 3.69 µM
YSFKPMPL[dA]RRRIPQSLDSWWTSL (Synthetic peptide) [YSFKPMPLa[…] (C5a-inactive construct, C-terminus of agonist blocked by the HBsAg CTL epitope)] | 465 µM
B2 | 0.0004 µM
B3 | 2.34 µM
B4 | 0.529 µM
B5 | 0.416 µM
IPQSLDSWWTSLRRYSFKPMPL[dA]RG (Synthetic peptide) | 17 µM

Target: T1, C5a receptor (C5aR) expressed on the …
Assay: cell-based or functional assay
Remark: another data set of the same source

Binder | EC50, smooth muscle contraction of human umbilical artery | pD2, smooth muscle contraction of human umbilical artery
B1 | 0.21 µM | 6.68 -log EC50 (M)
YSFKPMPL[dA]RRRIPQSLDSWWTSL (Synthetic peptide) [YSFKPMPLa[…] (C5a-inactive construct, C-terminus of agonist blocked by the HBsAg CTL epitope)] | 39.4 µM | 4.41 -log EC50 (M)
B2 | 0.002 µM | –
B3 | 0.01 µM | –
B4 | 0.18 µM | 6.67 -log EC50 (M)
B5 | 0.161 µM | 6.79 -log EC50 (M)
IPQSLDSWWTSLRRYSFKPMPL[dA]RG (Synthetic peptide) | 6.78 µM | 5.17 -log EC50 (M)
